According to the supplement of paper PMC12667976:
± gives the standard error.

B1: library; numbered along this chain (parent)
chain: MATDAALRRLLRLHRTEIAVAVDSAFPLLHALADHDVVPEDKFQETLHLKEKEGCPQAFHALLSWLLTQDSTAILDFWRVLFKDYNLERYGRLQPILDSFPKDVDLSQPRKGRKPPAVPKALVPPPRLPTKRKASEEARAAAPAALTPRGTASPGSQLKAKPPKKPESSAEQQRLPLGNGIQTMSASVQRAVAMSSGDVPGARGAVEGILIQQVFESGGSKKCIQVGGEFYTPSKFEDSGSGKNKARSSSGPKPLVRAKGAQGAAPGGGEARLGQQGSVPAPLALPSDPQLHQKNEDECAVCRDGGELICCDGCPRAFHLACLSPPLREIPSGTWRCSSCLQATVQEVQPRAEEPRPQEPPVETPLPPGLRSAGEEVRGPPGEPLAGMDTTLVYKHLPAPPSAAPLPGLDSSALHPLLCVGPEGQQNLAPGARCGVCGDGTDVLRCTHCAAAFHWRCHFPAGTSRPGTGLRCRSCSGDVTPAPVEGVLAPSPARLAPGPAKDDTASHEPALHRDDLESLLSEHTFDGILQWAIQSMARPAAPFPS

Variants of: B1
Experiment: AIRE transcriptional activation functional score (insulin promoter-GFP; nonsense median 0, synonymous median 1) (normalised score); higher = higher AIRE activity (more reporter activation)
Settings: with insulin promoter-GFP reporter in HEK293
Method in brief: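 The functional score compares variant enrichment between select and non-select populations after subtracting wild type. To obtain it, codon-optimized AIRE NNN-codon libraries spanning three regions were placed by Bxb1 recombinase into Flp-In T-REx HEK293 landing-pad cells with an insulin core promoter-GFP reporter. Cells with the top 10% GFP and unselected integrants were tile-sequenced after mCherry+, BFP− integrants had been sorted at day 7 and grown 7 more days. Only variants with 10 counts per million in non-select were kept, rescaled to nonsense median 0 and synonymous median 1, and averaged across biological replicates.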

Variant	AIRE transcriptional activation functional score
T344M	1.37 ± 0.031
T344R	1.08 ± 0.16
T344F	1.26 ± 0.16
T344Q	1.12 ± 0.21
P357H	0.925 ± 0.15
P357L	1.2 ± 0.13
P357I	1.11 ± 0.14
P357Y	1.34 ± 0.16
P357M	1.29 ± 0.051
P357R	1.07 ± 0.24
P357D	0.863 ± 0.065
P357Q	1.06 ± 0.076
P357W	1.17 ± 0.017
P357G	0.884 ± 0.26
P357E	1.05 ± 0.18
P357K	0.713 ± 0.13
P357A	1.01 ± 0.11
P357V	0.974 ± 0.11
P357C	1.23 ± 0.24
P357F	1.27 ± 0.11
P357S	0.935 ± 0.12
P357N	1.32 ± 0.045
P357T	1.1 ± 0.11
A343E	0.95 ± 0.23

Variant	AIRE transcriptional activation functional score
A343F	1.38 ± 0.48
A343S	0.938 ± 0.23
A343P	0.957 ± 0.096
A343V	1.03 ± 0.1
A343L	1.38 ± 0.24
A343C	0.944 ± 0.16
A343H	1.02 ± 0.16
A343I	1.36 ± 0.074
A343G	0.94 ± 0.21
A343Q	0.485 ± 0.071
A343Y	1.09 ± 0.17
A343R	0.816 ± 0.16
A343D	1.18 ± 0.15
A343M	1.59 ± 0.066
A343T	1.13 ± 0.28
A343W	1.93 ± 0.13
A343N	0.601 ± 0.21
A343K	0.609 ± 0.059
C340Y	0.989 ± 0.045
E347G	1.17 ± 0.13
E347D	1.21 ± 0.29
E347L	1.16 ± 0.24
E347M	1.06 ± 0.099
E347H	1.32 ± 0.28

Variant	AIRE transcriptional activation functional score
E347Q	0.943 ± 0.2
E347Y	1.43 ± 0.062
E347C	1.15 ± 0.025
E347P	1.14 ± 0.2
E347V	0.892 ± 0.13
E347S	1.12 ± 0.17
E347F	1.28 ± 0.059
E347T	1.26 ± 0.18
E347A	1 ± 0.18
E347W	1.24 ± 0.016
E347R	1.23 ± 0.15
E347N	0.719 ± 0.25
E347I	1.15 ± 0.12
E347K	1.11 ± 0.076
Q349Y	1.08 ± 0.22
Q349F	0.896 ± 0.13
Q349P	0.847 ± 0.16
Q349R	0.95 ± 0.28
Q349V	1.13 ± 0.22
Q349M	0.852 ± 0.023
Q349K	1.06 ± 0.14
Q349H	0.951 ± 0.05
Q349T	1.12 ± 0.21
Q349S	1.26 ± 0.17

Variant	AIRE transcriptional activation functional score
Q349L	1.1 ± 0.26
Q349W	1.55 ± 0.08
Q349E	1.04 ± 0.12
Q349A	0.994 ± 0.27
Q349I	1.05 ± 0.23
Q349C	1.1 ± 0.063
Q349D	0.985 ± 0.1
Q349G	1.14 ± 0.19
Q349N	0.61 ± 0.22
V345A	0.719 ± 0.2
V345F	1.36 ± 0.035
V345H	0.756 ± 0.36
V345C	1.04 ± 0.15
V345T	1.24 ± 0.34
V345W	1.52 ± 0.023
V345E	0.982 ± 0.059
V345N	0.989 ± 0.34
V345Q	0.581 ± 0.12
V345Y	1.02 ± 0.18
V345I	0.913 ± 0.24
V345S	0.912 ± 0.16
V345L	1.03 ± 0.23
V345G	1.12 ± 0.068
V345R	1.14 ± 0.29

Variant	AIRE transcriptional activation functional score
V345K	1.22 ± 0.21
V345M	1.28 ± 0.08
V345P	1.06 ± 0.22
V345D	1.02 ± 0.18
L341A	0.936 ± 0.45
L341Q	1.08 ± 0.17
L341K	0.983 ± 0.25
L341P	0.971 ± 0.16
L341M	0.759 ± 0.046
L341E	0.957 ± 0.14
L341W	1.32 ± 0.023
L341T	1.03 ± 0.2
L341G	1.11 ± 0.15
L341I	1.21 ± 0.14
L341S	0.767 ± 0.29
L341D	0.832 ± 0.14
L341R	1.16 ± 0.16
L341N	1.02 ± 0.053
L341F	1.01 ± 0.089
L341V	0.917 ± 0.12
L341Y	0.945 ± 0.15
L341C	1.24 ± 0.16
L341H	0.986 ± 0.11
Q358G	1.34 ± 0.21

Variant	AIRE transcriptional activation functional score
Q358D	0.761 ± 0.22
Q358F	1.16 ± 0.086
Q358I	1.1 ± 0.07
Q358E	1.19 ± 0.069
Q358C	0.97 ± 0.14
Q358K	1.02 ± 0.087
Q358L	1.14 ± 0.12
Q358A	0.941 ± 0.3
Q358H	1.12 ± 0.12
E353M	1.19 ± 0.042
E353H	0.837 ± 0.14
E353W	1.17 ± 0.028
E353I	1.13 ± 0.076
E353F	1.25 ± 0.11
E353S	1.14 ± 0.19
E353V	1.15 ± 0.089
E353G	0.959 ± 0.24
E353D	0.963 ± 0.19
E353P	1.12 ± 0.19
E353T	1.19 ± 0.13
E353R	1.14 ± 0.19
E353C	1.2 ± 0.23
E353Y	1.42 ± 0.078
E353K	1.17 ± 0.078

Variant	AIRE transcriptional activation functional score
E353Q	1.18 ± 0.16
E353A	1.07 ± 0.18
E353L	1.18 ± 0.15
E353N	0.963 ± 0.22
P350M	1.11 ± 0.077
P350G	1.14 ± 0.19
P350S	0.947 ± 0.17
P350F	1.25 ± 0.27
P350I	1.14 ± 0.2
P350W	1.02 ± 0.042
P350T	0.866 ± 0.16
P350N	1.37 ± 0.076
P350V	1.01 ± 0.088
P350L	1.17 ± 0.092
P350A	1.13 ± 0.18
P350Q	0.912 ± 0.13
P350H	1.47 ± 0.12
P350R	1.18 ± 0.23
P350D	1.09 ± 0.12
P350E	1.04 ± 0.11
P350C	0.761 ± 0.15
P350Y	0.767 ± 0.26
P350K	0.93 ± 0.039
